Measurements reported in paper PMC3017026.

Target: recombinant human α-synuclein (human) (UniProt P37840)

For amyloid-β 1-42 synthetic peptide, the EC50 of the loss of synaptophysin (ELISA) in mouse cortical neurons incubated 24 hours with αSN premixed with Aβ1-42 (1:50); αSN alone 500 nM was 25 nM.
